Assay: label from the status in PepcDB records

MGVLWNSIQSVLVVVLIMILGFVLRRAGWFDDKFAGTISKFIKNIALPASIFVSVLSRLTRGQLGSFAGYLAYAFLAVIIGYLIAFALVKVMRVRPGRKGIFINAIVNANTIFIGLPLNIALFGDKSMTYFLVYYIVNTVSTWAFGVFLISNDDPTKSKEKTHNKIDWKKVIPMPLVGFLVALIFLLLNIPIMKVSFVSSTLTYVGNLVTPLSLIYIGIVLADAGLKSIRFDRDTVVALVGRFILSPIVMILVLMVAGNLGASFPTLASQTLIVQSATPMLAVLPILANEAHGDVEYATNIVTTSTVLFIVVVPVLMTLIQYI
protein production: failed

MGVNSQKSQGEDVSPDSNIETKEGTYVGLADTHTIEVTVDNEPVSLDITEESTSDLDKFNSGDKVTITYEKNDEGQLLLKDIERANLEHHHHHH
protein production: failed

MGWFSAPEYWLGRLALERGTAIIYLIAFVAAAQQFRPLIGEHGMLPVPRYLAGQSFWRTPSIFHFRYSDRVFAGVCWLGAVLSAAVVAGAASFVPLWATMLIWLTLWVLYLSIVNVGQAWYSFGWESLLLETGFLMIFLGNERTAPPILTLLLARWLLFRVEFGAGLIKMRGDSCWRSLTCLYYHHETQPMPGPLSWFFHHLPKPLHRIEVAGNHFAQLVVPFGLFTPQPAASIAAAIIVVTQLWLVASGNFSWLNWLTILLACSAIDTSSAAALLPMPAQPALSAPPQWFAGLVVVFTAAVLLLSYWPARNLLSSHQRMNMSFNPFHLVNTYGAFGSICRTRREVVIEGTDESPITEQTVWKAYEFKGKPGDPRRLPRQWAPYHLRLDWLMWFAAISPGYALPWMTPFLNRLLRNDPATLKLLRHNPFPQSPPRYVRAQLYQYRFTTVAELRRDRAWWHRTLIGRYVPPMSLRKVASPPAD
protein production: failed

MGWHCVFFQMDLRYCSVQTLARTHQVMRELVQASAFVELNRFFDRLEAQWRQAPPGEFPAYLAAIDGHMLLDQENQGDRALSQVLRAWIDACPRAYHPQVVMGMHCFHRACQVQVDGPRNAARLLAVAQICESATAHLLRAMDRSAHPVAAAIGMLRISAQFHEPGWLLQLFQGEPARFRPSAHADVEVQEAAAPLLVRHGLLPLAELPQSLPRYLGKRVDHENEDPRYYWLRHALIARPGCFEAIQALAVYLLPRWGGSLDAFELLVNGPLCATWDERLRNALRWMAVEGRLKLPQADKVQAVADWQHVFEDWSQRPLRPRERAVVLAWRGALRSRVSGDHAGAMRDFGASLACNADLGAIRAMGVPFRCLAELILRDGMADEKQLLHGAIERLCDGRSHAAACALRAVGHRFGLWALPRSAEQARLWLQRAVSRQCAGQAPGFEVLEVARLLWAANRHEVACYLYERCAELNLPGAALALYELHHGGLANTPAHYLDDEAAGYWLQRAVEAGSRQAKYNLACLRMDGDEDLNERSAMLAVRRLLVDALGNGQTNACARLHLGILLRRFGEAQERSEAVAYLLSLVEHPDPWLAGRASAELGLAWMQGRGTRKQSRFAAIQWVNRAASLQPRDSAIGDIQAQILNSHSRVKTLFTQCGAALFRGTLHASELPPKQAFTHAESLRVKPASDGLRRAHKPRLSGPMQG
protein production: failed

MGWVTDWSAQAACRTTDPDELFVQGAAQNRAKAVCTGCPVRTECLADALDNRVEFGVWGGMTERERRALLRRRPTVTSWRRLLETARTEYERGVGIVPLDDDEVYENYAAVG
protein production: failed

MGYDPRISVSKWYEKWMLIYVVHSVKATTLSNYVNGFERVREYIGYMRLIEVRPTHILDMIKGLEEEGYARTTVIQSLSVVRQLFKKAYGGKMIPIDPVADIKLEHHHHHH
protein production: not failed

MHALYITHPQVKIDPAVPVPEWGLSERGAERAREASRLPWAKALRRIVSSAETKAIETAHMLAETSGAAIEIIEAMHENDRSATGFLPPPEFEKAADWFFAHPEESFQGWERAIDAQARIVEAVKAVLDRHDARQPIAFVGHGGVGTLLKCHIEGRGISRSKDQPAGGGNLFRFSIAEFSLAAASPTCDWTAMETWQG
protein production: not failed

MHAQTKDLTPIKGIRYYYPPDDAVLVFKDEKERIHYGGMPVPLLEDDFARLDGEPSYDEVGRGVYQALRSNPDCILCDKYAALLRDAYPHYLAELASNAIMIDSKDVEVPYLDRKIACLKVLALLEPQNPALPLEIGRVFLDRGMRLSALHLSTVSIYRAEHFLNRAHTLAPDDRNINRYLGEAYYLLGKYDEAVGFWRKATTTDEPEAERLRERIERISAGNVPLIPPVDYLEAIGAAFACNQTGEYEESIAILQDILMDPVFSEEFPIPEIHCVIGKGFTALDMPKYAEAEFRQALVMDPAHEEARALLATIAAA
protein production: failed

MHATDQTFQILLSQLLEKVEDRCPECGSEQYVWQQKNKDGTERCAPTCWSCGYKMLKKHEQQANQQRSQESFMARTQKFFHQGSLIADDALRQCRLTNYQTTELETRQAKERALAAVSAIVEGKPIHVIFSGKPGVGKSHLAISILVEVLERSAYQKYCLFVSYSELLEKLKMSMNESAKSQAKAQAYITRMKKADVLVLDDLGAELGIKNKVSTDFNNDILNRILEARQNKATIFTTNFSGKQLVEAYGTRIISRLMKHANGYVFQYKDTTDKRMRSVKLEHHHHHH
protein production: failed

MHDALRAYIEKYASEKISDADFEEVKKAFTFKRYKKGQFLLQEGEVSKYTAFVLKGSMRQYSVDAKGTEHIIHFGIENWWVGDRESSTMLTPSNYNIDAIEDTEVLLTTSEDLQQLTAALPVIGKMVNTMNQRNFIASQKRIHDALSLTAEERYLELLKNHPDFLQRFPQTMLASYLGITAETYSRIRKKALK
protein production: not failed

MHDGSVFYTIFLIFAGAAFFSTLVLYTKQSLLVAYITLGAILGPWGFKLVSDVTVVKQIGDIGIVFLLFLLGLHLQPQNLIHMLRKVTWIAIVSSILFAALAYGIGRWFGLTVTESLILGGAMMFSSTIIGLKLLPTTILHHQHTGEVMISVLLMQDVIAIVLLILLNSAHQDGNLSISDFILVIIALPALCLFSFLFERYILIKLLARFDRTQEYVFLLSIGWCLGISVLAQTIGLSEDIGAFIAGVALASSPISLFIAESLKPLRDFFLVMFFFSIGATFNFGFGAQVVIPAVILATLILIIKPLLFYILLARSGEKKQVAKEVGIRLGQGSEFSLLVASIALSTNLISEVASNLIQATTILTFIVSSYLVVLKYPTPIALSEKMRKD
protein production: failed

MHDTIPEYIRDGAQDMLAQGGVQKLGLKKEGGTWEIDGSIQSDDFQIYVSRISLTPSEHRASYVCNCSDSFSGVCRHVAATALKMLSTFDTRPGSDEPAKPRVEWRQSFRSFFSTALDPEPGKHYLIFRFHPEPGRLTVAFFRARQNKSGLSTVHNEITLEQIINNPEWCELSPQLVDVAKQVGQFVDYYGHRIEIPDGLVSWFFWAIRREYYLFWLDTESPCRIENTALGLKLHPRLGDDGLSFDVMLYREGKPPFSILGGENAATFHGQMPMWVCWNRSFYPVQTSLPPQLVQDLIRQHPSIPQEDMSEFLDRVWTRLPSSDLYGQEDFLKLMEPVFQPARYSPKLFLDEEGSLLTLEIQNVYETAHGEFYLAGPNPDFQTGSYTFEGTTFLIRRHQDEEAGLITQLSEMRFQPRSSRLWFLEPEEAIAFLLDAYPRLVEKYRVYGEKALSRYKVRLSQPVITAKVESNEEEKWFSLDIDVEYDGQKVPIDKIWKAWSQGKRYVQLKDGSYTSLPETWLERLGHKLQALGLDPDKPPQKQFKQFEAPVLDSLLDDLPGAETDSFWNSLRDKIRTFREIRAVNAPRGLNATLRGYQMQGLAYLNFLREYGFGGILADEMGLGKTVQTLSFVQHMVESGKIGPNLIVVPTSVLPNWEREAQKFVPELKRLIIYGTRREGMFKLIDESDLVVTTYALLRRDLEELQNHTFNCIILDEAQNIKNPNTITARSVRRIKADMRLCLSGTPIENNLFELWSLFEFLMPGFLGSQHAFQRGVIKPIKDGDCETLDYLRTRVRPFILRRTKSEVAKDLPPKIENTYYCALAEEQAELYTALARKLKEQVLADVDEKGLAKSQMSILDALLKLRQICCHPRLLKLDMPGFSTNLPSGKFDAFKDMITDIVEEGHKVLVFSQFVQMLHIIRSWLQISGTPFCYLDGTSKDRFEQVDKFNNSPDIPIFLISLKAGGTGLNLTSADYVIHYDPWWNPAVESQATDRTHRIGQTRQVFSYKLICQNTVEEKILKLQDMKRGVAEAIIPGQETWKSLTREDLEMLFDI
protein production: failed

MHEFLKAFKDAFPHTISILLGYLLMGMTFGMLLVQQGYDYKVALFMSLFIYAGAVQFVAITLLSAQASLMNVVIVSLLVNARQTCYALSMLDRFKNTKWRLPYLAHALTDETFALLNLYAPKEGVSEKDFIFSISLLNHSYWIFGSLVGSLVGSHFSFDTQGMEFVMTAIFIVLFMEQYKRTTNHKNAWLGIVIAVVCLALFGTEYFLLIALVLMVLALMLFRKQLEC
protein production: failed

— a protein production outcome set (Wang et al. 2014)
